Data reported in the supplement of paper PMC12338614.
± gives the uncertainty stated by the source.

B1: library; numbered along this chain (parent)
chain: MEVVDPQQLGMFTEGELMSVGMDTFIHRIDSTEVIYQPRRKRAKLIGKYLMGDLLGEGSYGKVKEVLDSETLCRRAVKILKKKKLRRIPNGEANVKKEIQLLRRLRHKNVIQLVDVLYNEEKQKMYMVMEYCVCGMQEMLDSVPEKRFPVCQAHGYFCQLIDGLEYLHSQGIVHKDIKPGNLLLTTGGTLKISDLGVAEALHPFAADDTCRTSQGSPAFQPPEIANGLDTFSGFKVDIWSAGVTLYNITTGLYPFEGDNIYKLFENIGKGSYAIPGDCGPPLSDLLKGMLEYEPAKRFSIRQIRQHSWFRKKHPPAEAPVPIPPSPDTKDRWRSMTVVPYLEDLHGADEDEDLFDIEDDIIYTQDFTVPGQVPEEEASHNGQRRGLPKAVCMNGTEAAQLSTKSRAEGRAPNPARKACSASSKIRRLSACKQQ

Variants of: B1
Experiment: STK11 functional score (HeLa growth suppression), rescaled enrichment; synonymous median = 1, nonsense median = 0 (normalised score)
Conditions: with HeLa; variant type: missense
How it was run: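 HeLa cells carrying an AAVS1 landing pad received codon-optimised STK11 libraries made by codon randomisation (POPCode), integrated by Bxb1, with three regions each transfected three times. Integrants that were BFP-negative and mCherry-positive were sorted by FACS 4–5 days after electroporation and then grown for about two weeks. Tiled amplicons from gDNA were sequenced on NextSeq at ~2 million reads per tile. The functional score is a wild-type-corrected log ratio of post- to pre-selection counts, rescaled to the synonymous and nonsense medians, merged across codons and replicate transfections, and given a bootstrapped error.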
MEVVDPQQLGMFTEGELMSVGMDTFIHRIDSTEVIYQPRRKRAKLIGKYLMGDLLGEGSYGKVKEVLDSETLCRRAVKILKKKKLRRIPNGEANVKKEIQLLRRLRHKNVIQLVDVLYNEEKQKMYMVMEYCVCGMQEMLWSVPEKRFPVCQAHGYFCQLIDGLEYLHSQGIVHKDIKPGNLLLTTGGTLKISDLGVAEALHPFAADDTCRTSQGSPAFQPPEIANGLDTFSGFKVDIWSAGVTLYNITTGLYPFEGDNIYKLFENIGKGSYAIPGDCGPPLSDLLKGMLEYEPAKRFSIRQIRQHSWFRKKHPPAEAPVPIPPSPDTKDRWRSMTVVPYLEDLHGADEDEDLFDIEDDIIYTQDFTVPGQVPEEEASHNGQRRGLPKAVCMNGTEAAQLSTKSRAEGRAPNPARKACSASSKIRRLSACKQQ [D141W] showed an STK11 functional score of 0.69 ± 0.12. In the case of MEVVDPQQLGMFTEGELMSVGMDTFIHRIDSTEVIYQPRRKRAKLIGKYLMGDLLGEGSYGKVKEVLDSETLCRRAVKILKKKKLRRIPNGEANVKKEIQLLRRLRHKNVIQLVDVLYNEEKQKMYMVMEYCVCGMQEMLDFVPEKRFPVCQAHGYFCQLIDGLEYLHSQGIVHKDIKPGNLLLTTGGTLKISDLGVAEALHPFAADDTCRTSQGSPAFQPPEIANGLDTFSGFKVDIWSAGVTLYNITTGLYPFEGDNIYKLFENIGKGSYAIPGDCGPPLSDLLKGMLEYEPAKRFSIRQIRQHSWFRKKHPPAEAPVPIPPSPDTKDRWRSMTVVPYLEDLHGADEDEDLFDIEDDIIYTQDFTVPGQVPEEEASHNGQRRGLPKAVCMNGTEAAQLSTKSRAEGRAPNPARKACSASSKIRRLSACKQQ [S142F], the STK11 functional score is reported as 1.41 ± 0.43. In the case of MEVVDPQQLGMFTEGELMSVGMDTFIHRIDSTEVIYQPRRKRAKLIGKYLMGDLLGEGSYGKVKEVLDSETLCRRAVKILKKKKLRRIPNGEANVKKEIQLLRRLRHKNVIQLVDVLYNEEKQKMYMVMEYCVCGMQEMLDGVPEKRFPVCQAHGYFCQLIDGLEYLHSQGIVHKDIKPGNLLLTTGGTLKISDLGVAEALHPFAADDTCRTSQGSPAFQPPEIANGLDTFSGFKVDIWSAGVTLYNITTGLYPFEGDNIYKLFENIGKGSYAIPGDCGPPLSDLLKGMLEYEPAKRFSIRQIRQHSWFRKKHPPAEAPVPIPPSPDTKDRWRSMTVVPYLEDLHGADEDEDLFDIEDDIIYTQDFTVPGQVPEEEASHNGQRRGLPKAVCMNGTEAAQLSTKSRAEGRAPNPARKACSASSKIRRLSACKQQ [S142G], the STK11 functional score is reported as 1.62 ± 0.16. In the case of MEVVDPQQLGMFTEGELMSVGMDTFIHRIDSTEVIYQPRRKRAKLIGKYLMGDLLGEGSYGKVKEVLDSETLCRRAVKILKKKKLRRIPNGEANVKKEIQLLRRLRHKNVIQLVDVLYNEEKQKMYMVMEYCVCGMQEMLDPVPEKRFPVCQAHGYFCQLIDGLEYLHSQGIVHKDIKPGNLLLTTGGTLKISDLGVAEALHPFAADDTCRTSQGSPAFQPPEIANGLDTFSGFKVDIWSAGVTLYNITTGLYPFEGDNIYKLFENIGKGSYAIPGDCGPPLSDLLKGMLEYEPAKRFSIRQIRQHSWFRKKHPPAEAPVPIPPSPDTKDRWRSMTVVPYLEDLHGADEDEDLFDIEDDIIYTQDFTVPGQVPEEEASHNGQRRGLPKAVCMNGTEAAQLSTKSRAEGRAPNPARKACSASSKIRRLSACKQQ [S142P], the STK11 functional score is reported as 1.34 ± 0.13. In the case of MEVVDPQQLGMFTEGELMSVGMDTFIHRIDSTEVIYQPRRKRAKLIGKYLMGDLLGEGSYGKVKEVLDSETLCRRAVKILKKKKLRRIPNGEANVKKEIQLLRRLRHKNVIQLVDVLYNEEKQKMYMVMEYCVCGMQEMLDDVPEKRFPVCQAHGYFCQLIDGLEYLHSQGIVHKDIKPGNLLLTTGGTLKISDLGVAEALHPFAADDTCRTSQGSPAFQPPEIANGLDTFSGFKVDIWSAGVTLYNITTGLYPFEGDNIYKLFENIGKGSYAIPGDCGPPLSDLLKGMLEYEPAKRFSIRQIRQHSWFRKKHPPAEAPVPIPPSPDTKDRWRSMTVVPYLEDLHGADEDEDLFDIEDDIIYTQDFTVPGQVPEEEASHNGQRRGLPKAVCMNGTEAAQLSTKSRAEGRAPNPARKACSASSKIRRLSACKQQ [S142D], the STK11 functional score is reported as 1.52 ± 0.39. MEVVDPQQLGMFTEGELMSVGMDTFIHRIDSTEVIYQPRRKRAKLIGKYLMGDLLGEGSYGKVKEVLDSETLCRRAVKILKKKKLRRIPNGEANVKKEIQLLRRLRHKNVIQLVDVLYNEEKQKMYMVMEYCVCGMQEMLDKVPEKRFPVCQAHGYFCQLIDGLEYLHSQGIVHKDIKPGNLLLTTGGTLKISDLGVAEALHPFAADDTCRTSQGSPAFQPPEIANGLDTFSGFKVDIWSAGVTLYNITTGLYPFEGDNIYKLFENIGKGSYAIPGDCGPPLSDLLKGMLEYEPAKRFSIRQIRQHSWFRKKHPPAEAPVPIPPSPDTKDRWRSMTVVPYLEDLHGADEDEDLFDIEDDIIYTQDFTVPGQVPEEEASHNGQRRGLPKAVCMNGTEAAQLSTKSRAEGRAPNPARKACSASSKIRRLSACKQQ [S142K] gave an STK11 functional score of 1.52 ± 0.34. MEVVDPQQLGMFTEGELMSVGMDTFIHRIDSTEVIYQPRRKRAKLIGKYLMGDLLGEGSYGKVKEVLDSETLCRRAVKILKKKKLRRIPNGEANVKKEIQLLRRLRHKNVIQLVDVLYNEEKQKMYMVMEYCVCGMQEMLDAVPEKRFPVCQAHGYFCQLIDGLEYLHSQGIVHKDIKPGNLLLTTGGTLKISDLGVAEALHPFAADDTCRTSQGSPAFQPPEIANGLDTFSGFKVDIWSAGVTLYNITTGLYPFEGDNIYKLFENIGKGSYAIPGDCGPPLSDLLKGMLEYEPAKRFSIRQIRQHSWFRKKHPPAEAPVPIPPSPDTKDRWRSMTVVPYLEDLHGADEDEDLFDIEDDIIYTQDFTVPGQVPEEEASHNGQRRGLPKAVCMNGTEAAQLSTKSRAEGRAPNPARKACSASSKIRRLSACKQQ [S142A] was tested, and the STK11 functional score was 1.63 ± 0.14. MEVVDPQQLGMFTEGELMSVGMDTFIHRIDSTEVIYQPRRKRAKLIGKYLMGDLLGEGSYGKVKEVLDSETLCRRAVKILKKKKLRRIPNGEANVKKEIQLLRRLRHKNVIQLVDVLYNEEKQKMYMVMEYCVCGMQEMLDMVPEKRFPVCQAHGYFCQLIDGLEYLHSQGIVHKDIKPGNLLLTTGGTLKISDLGVAEALHPFAADDTCRTSQGSPAFQPPEIANGLDTFSGFKVDIWSAGVTLYNITTGLYPFEGDNIYKLFENIGKGSYAIPGDCGPPLSDLLKGMLEYEPAKRFSIRQIRQHSWFRKKHPPAEAPVPIPPSPDTKDRWRSMTVVPYLEDLHGADEDEDLFDIEDDIIYTQDFTVPGQVPEEEASHNGQRRGLPKAVCMNGTEAAQLSTKSRAEGRAPNPARKACSASSKIRRLSACKQQ [S142M] was tested, and the STK11 functional score was 0.933 ± 0.16. MEVVDPQQLGMFTEGELMSVGMDTFIHRIDSTEVIYQPRRKRAKLIGKYLMGDLLGEGSYGKVKEVLDSETLCRRAVKILKKKKLRRIPNGEANVKKEIQLLRRLRHKNVIQLVDVLYNEEKQKMYMVMEYCVCGMQEMLDEVPEKRFPVCQAHGYFCQLIDGLEYLHSQGIVHKDIKPGNLLLTTGGTLKISDLGVAEALHPFAADDTCRTSQGSPAFQPPEIANGLDTFSGFKVDIWSAGVTLYNITTGLYPFEGDNIYKLFENIGKGSYAIPGDCGPPLSDLLKGMLEYEPAKRFSIRQIRQHSWFRKKHPPAEAPVPIPPSPDTKDRWRSMTVVPYLEDLHGADEDEDLFDIEDDIIYTQDFTVPGQVPEEEASHNGQRRGLPKAVCMNGTEAAQLSTKSRAEGRAPNPARKACSASSKIRRLSACKQQ [S142E] was tested, and the STK11 functional score was 1.55 ± 0.18. In the case of MEVVDPQQLGMFTEGELMSVGMDTFIHRIDSTEVIYQPRRKRAKLIGKYLMGDLLGEGSYGKVKEVLDSETLCRRAVKILKKKKLRRIPNGEANVKKEIQLLRRLRHKNVIQLVDVLYNEEKQKMYMVMEYCVCGMQEMLDIVPEKRFPVCQAHGYFCQLIDGLEYLHSQGIVHKDIKPGNLLLTTGGTLKISDLGVAEALHPFAADDTCRTSQGSPAFQPPEIANGLDTFSGFKVDIWSAGVTLYNITTGLYPFEGDNIYKLFENIGKGSYAIPGDCGPPLSDLLKGMLEYEPAKRFSIRQIRQHSWFRKKHPPAEAPVPIPPSPDTKDRWRSMTVVPYLEDLHGADEDEDLFDIEDDIIYTQDFTVPGQVPEEEASHNGQRRGLPKAVCMNGTEAAQLSTKSRAEGRAPNPARKACSASSKIRRLSACKQQ [S142I], the STK11 functional score is reported as 0.895 ± 0.26. In the case of MEVVDPQQLGMFTEGELMSVGMDTFIHRIDSTEVIYQPRRKRAKLIGKYLMGDLLGEGSYGKVKEVLDSETLCRRAVKILKKKKLRRIPNGEANVKKEIQLLRRLRHKNVIQLVDVLYNEEKQKMYMVMEYCVCGMQEMLDCVPEKRFPVCQAHGYFCQLIDGLEYLHSQGIVHKDIKPGNLLLTTGGTLKISDLGVAEALHPFAADDTCRTSQGSPAFQPPEIANGLDTFSGFKVDIWSAGVTLYNITTGLYPFEGDNIYKLFENIGKGSYAIPGDCGPPLSDLLKGMLEYEPAKRFSIRQIRQHSWFRKKHPPAEAPVPIPPSPDTKDRWRSMTVVPYLEDLHGADEDEDLFDIEDDIIYTQDFTVPGQVPEEEASHNGQRRGLPKAVCMNGTEAAQLSTKSRAEGRAPNPARKACSASSKIRRLSACKQQ [S142C], the STK11 functional score is reported as 1.17 ± 0.2. Work on MEVVDPQQLGMFTEGELMSVGMDTFIHRIDSTEVIYQPRRKRAKLIGKYLMGDLLGEGSYGKVKEVLDSETLCRRAVKILKKKKLRRIPNGEANVKKEIQLLRRLRHKNVIQLVDVLYNEEKQKMYMVMEYCVCGMQEMLDNVPEKRFPVCQAHGYFCQLIDGLEYLHSQGIVHKDIKPGNLLLTTGGTLKISDLGVAEALHPFAADDTCRTSQGSPAFQPPEIANGLDTFSGFKVDIWSAGVTLYNITTGLYPFEGDNIYKLFENIGKGSYAIPGDCGPPLSDLLKGMLEYEPAKRFSIRQIRQHSWFRKKHPPAEAPVPIPPSPDTKDRWRSMTVVPYLEDLHGADEDEDLFDIEDDIIYTQDFTVPGQVPEEEASHNGQRRGLPKAVCMNGTEAAQLSTKSRAEGRAPNPARKACSASSKIRRLSACKQQ [S142N] yielded an STK11 functional score of 1.16 ± 0.33. For MEVVDPQQLGMFTEGELMSVGMDTFIHRIDSTEVIYQPRRKRAKLIGKYLMGDLLGEGSYGKVKEVLDSETLCRRAVKILKKKKLRRIPNGEANVKKEIQLLRRLRHKNVIQLVDVLYNEEKQKMYMVMEYCVCGMQEMLDLVPEKRFPVCQAHGYFCQLIDGLEYLHSQGIVHKDIKPGNLLLTTGGTLKISDLGVAEALHPFAADDTCRTSQGSPAFQPPEIANGLDTFSGFKVDIWSAGVTLYNITTGLYPFEGDNIYKLFENIGKGSYAIPGDCGPPLSDLLKGMLEYEPAKRFSIRQIRQHSWFRKKHPPAEAPVPIPPSPDTKDRWRSMTVVPYLEDLHGADEDEDLFDIEDDIIYTQDFTVPGQVPEEEASHNGQRRGLPKAVCMNGTEAAQLSTKSRAEGRAPNPARKACSASSKIRRLSACKQQ [S142L], the STK11 functional score was 1.16 ± 0.2. MEVVDPQQLGMFTEGELMSVGMDTFIHRIDSTEVIYQPRRKRAKLIGKYLMGDLLGEGSYGKVKEVLDSETLCRRAVKILKKKKLRRIPNGEANVKKEIQLLRRLRHKNVIQLVDVLYNEEKQKMYMVMEYCVCGMQEMLDHVPEKRFPVCQAHGYFCQLIDGLEYLHSQGIVHKDIKPGNLLLTTGGTLKISDLGVAEALHPFAADDTCRTSQGSPAFQPPEIANGLDTFSGFKVDIWSAGVTLYNITTGLYPFEGDNIYKLFENIGKGSYAIPGDCGPPLSDLLKGMLEYEPAKRFSIRQIRQHSWFRKKHPPAEAPVPIPPSPDTKDRWRSMTVVPYLEDLHGADEDEDLFDIEDDIIYTQDFTVPGQVPEEEASHNGQRRGLPKAVCMNGTEAAQLSTKSRAEGRAPNPARKACSASSKIRRLSACKQQ [S142H] gave an STK11 functional score of 1.44 ± 0.24.
